The test concerns the target T1, design #8 (v-SNARE-like protein, v-SP; MPNN-redesigned VAMP2), SEQ ID NO: 8.
T1 chain: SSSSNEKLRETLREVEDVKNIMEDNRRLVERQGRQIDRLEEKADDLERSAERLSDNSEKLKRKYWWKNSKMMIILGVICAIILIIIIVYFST
As to the kind of experiment: cell-based or functional assay.

The values below come from patent publication US20250092424A1 (University of Washington, published 2025).

B1: design #94 (single-chain t-SNARE-like protein, sc-t-SP), SEQ ID NO: 94 (designed binder)
chain: SEREKEIDEGLDRVSEIVKELKKMAEEMRRMIEEQGRRIERIEEKAEEAKEKIEEANERAEKLLKDPGGSGGSEELKKLEKEGEKLKELVEELDREIKELKEGMERLREMFEEAAKLSEEALEIMRRTRKLSEEELEEAKQKAKEQEKEKALKEKGGSGGSGGSEKVKRELAQIEERHQQILELEEKIKELLEMFKELSEKIEEQGQKIDRIEDKVSKAKEHVEKGVEDTKKAVKYQSKARRKKIMIIICCVILGIVIASTVGGIFA
B1: the “cell-cell fusion assay (reporter luciferase), fold over parental SNARE complex” value is 10 fold.
